This note sets out measurements from paper PMC8675452.

For the assay, the target named is biotinylated MPER peptide (MPERbiot) (HIV (strain not stated)). Nature of the assay: BLI. For orientation: BLI is a label-free optical method that tracks binding on a fibre tip over time.

Turning to “trispecific anti-HIV antibody (SAR441236)”, the koff (commonly a measure of how fast the partners let go of each other) stood at 0.00126 s⁻¹.
